Measurements reported in paper PMC9106921 (Nature immunology, 2022).
No end group written: not given here.

Molecular target: T1, recombinant cytoplasmic tail of CD4 (residues 421-458, C422S, C455S) (human, UniProt P01730 421-458, C422S | C455S)
T1 chain (looked up): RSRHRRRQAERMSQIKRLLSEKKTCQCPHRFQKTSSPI
Assay: NMR titration

B1: recombinant Lck (residues 7-35), 15N-labelled (domain or fragment, human, UniProt P06239 7-35, looked up)
chain: SHPEDDWMENIDVCENCHYPIVPLDGKGT
modifications: cysteine pairing not given here; also: 15N isotope labelling
- pKa of the pH-dependent disruption of the complex: 4.55 ± 0.1
